Series [1] addresses T1, GST-C/EBPβ-bZIP (rat) (UniProt P21272).
T1 sequence: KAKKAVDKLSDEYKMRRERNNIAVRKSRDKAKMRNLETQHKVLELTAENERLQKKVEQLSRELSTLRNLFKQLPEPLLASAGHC
Put plainly: fluorescence anisotropy competition. The following applies: 25 mM Tris-HCl pH 7.6, 75 mM NaCl, 150 mM KCl, 5 mM MgCl2, 0.1 mM DTT, 0.01% NP-40, room temperature, 20 min. (In general: Polarisation of emitted light reports the rotation of a fluorescent probe.)

The target in series [2] is T1, GST-C/EBPβ-bZIP (rat). Put plainly: fluorescence anisotropy. The settings on record: 25 mM Tris-HCl pH 7.6, 75 mM NaCl, 150 mM KCl, 5 mM MgCl2, 0.1 mM DTT, 0.01% NP-40, room temperature, 20 min.

“CCCTGCTTACACAATAGGCTC (double strand) [BS1 competitor]”: the Ki (usually the dissociation constant of the complex between target and ligand, obtained from inhibition or displacement) with GST-C/EBPβ-bZIP (rat) [1] is 83 nM. In the series with GST-C/EBPβ-bZIP (rat) [1] (vs 15 nM BS1 probe, 125 nM protein), “CCCTGATTGCGCAATAGGCTC (double strand) [Consensus C/EBPβ competitor]” displayed a Ki of 27 nM.

Turning to “TTTGGCTTACACAATTGCTTT (double strand) [BS1 probe]”, the Kd – broadly, a measure of binding affinity in units of concentration – with GST-C/EBPβ-bZIP (rat) [2] turned out to be 62 nM. In the series with GST-C/EBPβ-bZIP (rat) [1], “CCCTGCTTGCATAACAGGCTC (double strand) [HPV18 BS2L competitor]” yielded a Ki of 154 nM. Take “CCCTGATTGCAAAATAGGCTC (double strand) [BS2 competitor]”: in the series with GST-C/EBPβ-bZIP (rat) [1], the Ki came to 66 nM.

Source of the values: publication PMC6433916.
